One block for each molecule: values may come before it.
What was measured:
[1] = target: T1, recombinant human trimeric ARG2 enzyme (Homo sapiens, UniProt P78540, E275H/R327K); assay: Direct binding HTRF assay, human trimeric ARG2; details: purified scFv, FIG. 1A
T1 construct: His10 (after a GGG linker) (C); made in house; host or cells: E. coli BL21 (DE3)
T1 sequence (P78540 with tags, fused parts or gaps E275H/R327K): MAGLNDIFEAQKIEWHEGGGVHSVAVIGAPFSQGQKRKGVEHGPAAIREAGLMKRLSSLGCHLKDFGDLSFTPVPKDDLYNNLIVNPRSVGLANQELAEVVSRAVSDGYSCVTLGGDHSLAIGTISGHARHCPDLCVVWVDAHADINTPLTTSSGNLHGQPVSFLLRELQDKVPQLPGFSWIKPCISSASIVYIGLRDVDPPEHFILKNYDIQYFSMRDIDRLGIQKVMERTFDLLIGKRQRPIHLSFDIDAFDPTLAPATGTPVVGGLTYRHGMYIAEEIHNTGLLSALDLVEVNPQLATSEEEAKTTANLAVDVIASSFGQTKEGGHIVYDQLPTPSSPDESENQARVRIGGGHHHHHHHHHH
Method: Unpurified scFv from periplasmic preparations were screened in a homogeneous time-resolved fluorescence (HTRF™, CisBio Bioassays, France) binding assay using a Pherastar plate reader (BMG Labtech, Germany). In this assay, binding of unpurified scFv to recombinant human trimeric ARG2 enzyme was assessed by measuring the fluorescence resonance energy transfer (FRET) between the c-myc tagged scFv and the biotinylated enzyme using streptavidin cryptate and anti-c-myc-XL665 detection reagents (CisBio International, France; cat: 610SAKLB and 61 MYCXLB respectively). […] Assay plates were incubated overnight at 4° C. prior to reading time resolved fluorescence on a Pherastar plate reader ([…]) using an excitation wavelength of 320 nm and measuring the emission at 620 nm and 665 nm (100 flashes).
Data were analysed by calculating % Delta F values for each sample. % Delta F was determined according to equation 1.
The scFv with unique protein sequences were expressed in E. coli and purified by affinity chromatography (essentially as described (Bannister et al., 2006)). The ARG2 binding profile of each purified scFv was determined by testing a dilution series of the purified scFv in the HTRF™ assay described in section 1.4, substituting the unpurified scFv periplasmic preparation with the purified scFv. […] Data were analysed by calculating the % Delta F values as described in section 1.4. […]

[2] = test system: recombinant cynomolgus monkey trimeric ARG2 enzyme; assay: Direct binding HTRF assay, cynomolgus trimeric ARG2; details: purified scFv, FIG. 1C
Chain of recombinant cynomolgus monkey trimeric ARG2 enzyme (as listed by the source): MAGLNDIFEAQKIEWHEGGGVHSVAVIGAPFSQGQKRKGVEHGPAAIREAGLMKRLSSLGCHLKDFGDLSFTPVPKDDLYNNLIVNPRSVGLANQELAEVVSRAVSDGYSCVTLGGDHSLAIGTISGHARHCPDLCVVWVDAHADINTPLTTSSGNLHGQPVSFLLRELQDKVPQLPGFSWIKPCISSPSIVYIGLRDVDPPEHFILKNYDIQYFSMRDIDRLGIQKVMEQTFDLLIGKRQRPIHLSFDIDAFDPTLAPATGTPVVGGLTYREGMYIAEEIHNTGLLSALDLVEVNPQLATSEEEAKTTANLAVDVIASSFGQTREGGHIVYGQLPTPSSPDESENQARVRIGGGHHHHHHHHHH

ARG2 = target: T2, ARG2 (Homo sapiens, UniProt P78540); assay: Isothermal titration calorimetry of BEC with ARG2 and ARG2-C0021158 fab complex; type: binding; parameters: human ARG2 (aa23-354); His10 (C); made in house; host or cells: E. coli BL21 (DE3); details: 20 μM ARG2 and 20 μM C0021158 fab, 0.50 mM BEC titrated, 25° C.
T2 sequence (P78540 23-354): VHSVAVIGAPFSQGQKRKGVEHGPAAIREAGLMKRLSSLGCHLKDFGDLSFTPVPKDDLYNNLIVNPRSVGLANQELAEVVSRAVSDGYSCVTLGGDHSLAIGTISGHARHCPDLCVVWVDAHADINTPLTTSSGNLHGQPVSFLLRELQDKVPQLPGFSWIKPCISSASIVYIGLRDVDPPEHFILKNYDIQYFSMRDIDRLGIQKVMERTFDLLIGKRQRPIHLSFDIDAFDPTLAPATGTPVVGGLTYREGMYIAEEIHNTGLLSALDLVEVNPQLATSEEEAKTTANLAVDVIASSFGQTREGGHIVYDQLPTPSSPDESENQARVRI
Method: To assess the accessibility of the ARG2 active site, we analysed binding of the ARG2 small-molecule inhibitor S-(2-Boronoethyl)-L-cysteine hydrochloride (BEC) by isothermal titration calorimetry (ITC) using a VP ITC (MicroCal) set to 25° C. (FIG. 15B). BEC is an arginine analogue that binds to the active site of ARG2. First, volumes of 10 μl of a solution containing 0.75 mM BEC were added to 20 μM of ARG2 (monomer concentration). The resulting thermogram was integrated using NITPIC and the binding isotherm was fitted with SEDPHAT using a one-binding site model. In a second experiment, volumes of 10 μl of 0.50 mM BEC were added to a solution containing a pre-incubated 1:1 molar mixture of C0021158 fab and ARG2 (both 20 μM, incubation 1 h at 20° C.).

binding to biotinylated recombinant human trimeric ARG2 enzyme [1]: bound
binding to biotinylated recombinant cynomolgus trimeric ARG2 enzyme [2]: bound
B1: C0020065: anti-ARG2 antibody, alternate lead isolation clone, VH SEQ ID NO: 2, VL SEQ ID NO: 7 (antibody, listed as Homo sapiens, V domains shown)
VH: GVNLRESGGGVVQPGRSLRLSCAASGFTFSSYAMHWVRQAPGKGLEWVAVISYDGSNKYYVDSVKGRFTISRDNSKNTLYLQMNSLRAEDTAVYYCARDSSQLWFDYWGRGTLVTVSS
VL: QSVVTQPPSVSGAPGQRVTISCTGSSSNIGTGYDVHWYQQLPGTAPKLLIYGNSNRPSGVPDRFSGSKSGTSASLAITGLQAEDEADYYCQSYDSSLSGSVVFGGGTQLTVL
modifications: C0020065

effect on binding of BEC to ARG2 (ITC) (ARG2): prevents BEC from binding
B2: C0021158 IgG: anti-ARG2 antibody, VH SEQ ID NO: 282, VL SEQ ID NO: 287; IgG and Fab versions carry these sequences (antibody, listed as Homo sapiens, V domains shown)
VH: EVQLLESGGGLVQPGGSLRLSCAASGFTFRYEVAAWVRQAPGKGLEWVSAISGPIPKGYYADSVKGRFTISRDNSKNTLYLQMNSLRAEDTAVYYCARLRADLGLYMDLWGRGTLVTVSS
VL: QSVLTQPPSVSAAPGQKVTISCSGSSSNIGNHYVSWYQQLPGTAPKLLIYDNSERTAGVPDRFSGSKSGTSATLGITGLQTGDEADYYCGTWDELTSNLVFGGGTKLTVL
modifications: C0021158 IgG

— patent US20220403048A1, “BINDING MOLECULES TO ARGINASE II [ARG2]” (Cancer Research Technology Limited, priority 2019, published 2022)
